# Source: patent US20260217797A1 (Takeda / Millennium, published 2026)
# Like-named read-outs stand apart in the source and are kept apart here.
# Assays:
# [1] = biological target: T1, SARS-CoV1 Spike [change] (SARS-CoV-1, UniProt P59594 14-667); test: Octet BLI, IgG, monovalent
# [2] = biological target: T2, SARS-CoV-2 wild type spike protein (on reporter virus particles) (SARS-CoV-2, UniProt P0DTC2 14-1273); test: cell-based or functional assay
# [3] = biological target: T2, SARS-CoV-2 wild type spike protein (on …); test: cell-based or functional assay; remark: listed apart in the source
# [4] = biological target: T1, SARS-CoV1 Spike [change]; test: Octet BLI, IgG, monovalent; remark: listed apart in the source
# [5] = biological target: T3, SARS-CoV-2 Spike S1-His (SARS-CoV-2, UniProt P0DTC2 16-685); test: Octet BLI, IgG, monovalent
# [6] = biological target: T4, MERS-CoV [change] (MERS-CoV, UniProt K9N5Q8 18-725); test: Octet BLI, IgG, monovalent
# T4 sequence: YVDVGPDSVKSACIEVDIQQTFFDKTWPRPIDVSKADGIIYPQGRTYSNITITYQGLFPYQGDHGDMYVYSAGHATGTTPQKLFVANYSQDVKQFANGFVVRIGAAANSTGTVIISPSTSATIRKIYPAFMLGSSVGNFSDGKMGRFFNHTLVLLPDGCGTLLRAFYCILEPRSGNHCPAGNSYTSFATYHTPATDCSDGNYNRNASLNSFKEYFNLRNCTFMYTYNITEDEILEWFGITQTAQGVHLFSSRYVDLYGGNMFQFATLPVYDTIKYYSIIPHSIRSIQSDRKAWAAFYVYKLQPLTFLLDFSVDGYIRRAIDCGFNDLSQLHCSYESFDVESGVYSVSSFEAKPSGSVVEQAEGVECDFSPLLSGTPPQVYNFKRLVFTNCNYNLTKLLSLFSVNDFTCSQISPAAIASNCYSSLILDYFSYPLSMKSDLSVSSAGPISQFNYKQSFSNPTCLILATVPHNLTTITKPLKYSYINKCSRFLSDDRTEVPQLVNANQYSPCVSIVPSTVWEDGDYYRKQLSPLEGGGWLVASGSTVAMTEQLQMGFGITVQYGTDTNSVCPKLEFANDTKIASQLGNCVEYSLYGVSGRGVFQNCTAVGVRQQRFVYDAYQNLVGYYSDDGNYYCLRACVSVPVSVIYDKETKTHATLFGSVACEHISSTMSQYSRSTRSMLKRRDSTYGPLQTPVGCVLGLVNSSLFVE
# [7] = biological target: SARS-CoV-2 S Trimer (SARS-CoV-2, UniProt P0DTC2 16-1213); test: Octet BLI, IgG, avid
# [8] = biological target: T3, SARS-CoV-2 Spike S1-His; test: Octet BLI, IgG, monovalent; remark: listed apart in the source
binder,measurement,setting,value
"A-21.1 (antibody, V domains shown) VH: EVQLVESGGGLVQPGGSLRLSCAASGFTFRRYWMHWVRQAPGKGLVWVSRINSDGSSTTYADSVKGRFTISRDNAKNTLYLQMNSLRAEDTAVYYCARELYYYDSRGFEEGEGWFDPWGQGTLVTVSS VL: QSVLTQPPSVSGAPGQRVTISCTGISSNIGAGYDVHWYQQLPGTAPKLLIYGNSNRPSGVPDRFSASKSGTSAPLAITGLQAEDEADYYCQSSDRSLSGSVFGTGTKVTVL",Kd,[1],6.57 nM
same,WT PsV IC50,[2],1.75 nM
"A-17 (antibody, V domains shown) VH: EVQLQESGPGLVKPSETLSLTCTVSGGSISSYYWSWIRQPPGKGLEWIGYIYYSGSTNYNPSLKSRVTISVGTSKNQFSLKLSSVTAADTAVYYCAKSASDEPPPSTAAAGSHYYYYGMDVWGQGTTVTVSS VL: EIVMTQSPLSLPVTPGEPASISCRSSQSLLHSNGYNYLDWYLQKPGQSPHVLIYLGSNRASGVPDRFSGSGSGTDFTLKISRVEAEDVGVYYCMQALQTPNTFGQGTKLEIK",PsV Neut Assay IC50,[3],660 pM
same,binding result,[4],no binding
same,Kd,[5],1.58 nM
same,binding result,[6],no binding
"A-12 (antibody, V domains shown) VH: EVQLLESGGGLVQPGGSLRLSCAVSGLTVSSNYMSWVRQAPGKGLEWVSLIYSGGSTYYADSVKGRFTISRDNSKNTLYLQMNSLRAEDTAVYYCARGELGIPYGMDVWGQGTTVTVSS VL: QSVLTQPPSVSAAPGQKVTISCSGGSSNVGDNFVSWYQQLPGTAPKLLIYDNNRRPSGIPDRFSGSKSGTSATLGITGLQTGDEADYYCGTWDSSLSAGVFGGGTKVTVL",Kd,[7],1.11 nM
same,PsV Neut Assay IC50,[3],404 pM
same,binding result,[4],no binding
same,Kd,[5],2.57 nM
same,binding result,[6],no binding
"A-4 (antibody, V domains shown) VH: EVQLVESGGGLIQPGGSLTLSCAASGFTVSSNYMNWVRQAPGKGLEWVSVIYSGGSTYYADSVKGRFTISRDNSKNTLYLQMNSLRAEDTAVYYCAREVYSYFDYWGQGTLVTVSS VL: DIQLTQSPSFLSASVGDRVTITCRASQGISSYLAWYQQKPGKAPKLLIYAASTLQSGVPSRFSGSGSGTEFTLTISRLQPEDLATYYCQQLNSYPPHTFGQGAKLEIK",Kd,[7],1.97 nM
same,PsV Neut Assay IC50,[3],2260 pM
same,binding result,[4],no binding
same,binding result,[6],no binding
"A-23.3 (antibody, V domains shown) VH: EVQLVESGGGLVQPGRSLRLSCAASGFTFDDYAMHWVRQAPGKGLEWVSGTSWNSGTIGYADSVKGRFIISRDNAKNSLYLQMNSLRGEDMALYYCVKDRKREDPSLGGMDVWGQGTTVTVSS VL: SYVLTQPPSVSVAPGQTARITCGGNNIGSKSVHWYQQKPGQAPVLVVYDDTDRPSGIPERFSGSNSGNTATLTISRVEAGDEADYYCQVWDSSSDDYVFGTGTKVTVL",binding result,[1],no binding
"A-3 (antibody, V domains shown) VH: EVQLLESGPGLVKPSETLSLTCTVSGGSINSRSYYWGWIRQPPGKGLEWIGSIYYSGSTYYNPSLKSRVTISVDTSKNQFSLKLSSVIAADTAVYFCARLEQWELPGGWFDPWGQGTLVTVSS VL: NFMLTQPHSVSESPGKTVTISCTRSSGSIASNYVQWYQQRPGSAPTTVIYEDNQRPSGVPDRFSGSIDISSNSASLTISGLKTEDEADYSCQSSDSSNVVFGGGTKLTVL",Kd,[7],0.945 nM
same,PsV Neut Assay IC50,[3],419 pM
same,binding result,[4],no binding
same,Kd,[5],37.4 nM
same,binding result,[6],no binding
"A-14 (antibody, V domains shown) VH: EVQLVESGGGVVQPGRSLRLSCAASGFTFSTYGMHWVRQAPGKGLEWVAVIWYDGSNKYYADSVKGRFTISRDNSKNTLYLQMNSLRAEDTAVYYCARSVDGDYLEYFQHWGQGTLVTVSS VL: QPVLTQPRSVSGSPGQSVTISCTGTSSDVGGYNYVSWYQQHPGKAPKLMIYDVSKRPSGVPDRFSGSKSGNTASLTISGLQAEDEADYYCCSYAGGYTNYVFGTGTKLTVL",Kd,[7],2.09 nM
same,PsV Neut Assay IC50,[3],1610 pM
same,binding result,[4],no binding
same,Kd,[5],26.6 nM
same,binding result,[6],no binding
"A-7 (antibody, V domains shown) VH: EVQLVESGAEVRKPGASVKVSCKASGYTFTFYYIHWVRQAPGQGLEWMGWISPISGATNYAQTFQGRVTMTRDTSITTAYMELSSLTSDDTAVYYCAREKYYDSSGSSDYWGQGTLVTVSS VL: QPVLTQPPSVSAAPGQNVTIFCSGSSSNIGNNYVSWYQQLPGPAPKLLIYENNKRPSGIPDRFSGSKSGTSATLGITGLQTGDEADYYCGTWESSLSAPRVFGSGTKLTVL",Kd,[7],0.804 nM
same,PsV Neut Assay IC50,[3],92.2 pM
same,binding result,[4],no binding
same,Kd,[5],2.71 nM
same,binding result,[6],no binding
"A-15 (antibody, V domains shown) VH: QVQLVQSGAEVKKPGASVKVSCKASGYTSSSYYMHWVRQAPGQGPEWMGIINPGGTSTSYAQKFQGRVTMTRDTSTSTVYMELSSLRSEDTAVYYCAIGYCSTTSCRWGDAFDIWGQGTMVTVSS VL: DIQVTQSPSSLSASVGDRVTITCRASQSISSYLNWYQQKPEKAPNLLIYAASSLQSGVPSRFSGSGSGTDFTLTISSLQPEDFATYYCQQSSTTPPTFGQGTKVEIK",Kd,[7],1.62 nM
same,PsV Neut Assay IC50,[3],1440 pM
same,binding result,[4],no binding
same,Kd,[5],7.82 nM
same,binding result,[6],no binding
"A-8 (antibody, V domains shown) VH: EVQLLESGGGLVQPGGSLRLSCAASGFTFSSYAMSWVRQAPGKGLEWVSAISGSGNSTSYADSVKGRFTLSRDNSKNTLYLQMNSLRAEDTAIYYCAKGLGTRSFNWGAFDYWGQGTLVTVSS VL: DIRVTQSPSSLSASVGDRVTITCRASQGISYSLAWYQQKPGKAPKLLLYAASNLESGVPSRFSGSGSGTDYTLTVSSLQPEDFATYYCQQYYSTPWTFGQGTKVEIK",Kd,[7],1.53 nM
same,PsV Neut Assay IC50,[3],846 pM
same,binding result,[4],no binding
same,Kd,[5],0.477 nM
same,binding result,[6],no binding
"A-5 (antibody, V domains shown) VH: QVQLVESGGGLIQPGESLRLSCAASEFIVSRNYMSWVRQAPGKGLEWVSVIYSGGNTYYADSVKGRFTISRDNSKNTLYLQMNSLRAEDTAVYYCARDLRGPGCFDFWGQGTTVTVSS VL: DIQVTQSPSSLSASVGDRVTITCQASQDISNFLNWYQQKPGKAPKLLIYDASNLETGVPSRFSASGSGTEFTFTISSLQPEDIATYYCQQYDNLRVTFGGGTKLEIK",Kd,[7],2.41 nM
same,PsV Neut Assay IC50,[3],1100 pM
same,binding result,[4],no binding
same,Kd,[5],37.3 nM
same,binding result,[6],no binding
"A-20 (antibody, V domains shown) VH: QVQLVESGGGVVQPGRSLRLSCAASGFTFSNFAMHWVRQAPGKGLEWVAVILYDGINKYYADSVKGRFTISRGNSKNTLSLQMNSLRAEDTAVYYCARAQNYYDRSGTLQLDAFDIWGQGTLVTVSS VL: AIQMTQSPSSLSASVGDRVTITCRASQGIRNDLGWYQQKPGKAPKLLIYAASSLQSGVPSRFSGSGSGTDFTLTISSLQPEDFATYYCLQDYNYPLTFGGGTKVEIK",Kd,[1],22 nM
same,Kd,[8],3.95 nM
same,WT PsV IC50,[2],2.45 nM
"A-20.1 (antibody, V domains shown) VH: QVQLVESGGGVVQPGRSLRLSCAASGFTFSNFAMHWVRQAPGKGLEWVAVILYDGINKYYADSVKGRFTISRGNSKNTLSLQMNSLRAEDTAVYYCARAQNYYDRSGTLQLDAFDIWGQGTLVTVSS VL: AIQMTQSPSSLSASVGDRVTITCVASQGIRNDLGWYQQKPGKAPKLLIYEASSLESGVPSRFSGSGSGTDFTLTISSLQPEDFATYYCLQDYNYPLTFGGGTKVEIK",Kd,[1],5.29 nM
"A-20.2 (antibody, V domains shown) VH: QVQLVQSGGGVVQPGRSLRLSCAASGFTFDNFAMHWVRQAPGKGLEWVAVIEYDGINKYYADSVKGRFTISRGNSKNTLSLQMNSLRAEDTAVYYCARAQNYYDRYGTLQLDAFDIWGQGTLVTVSS VL: AIQMTQSPSSLSASVGDRVTITCRASQGIRNDLGWYQQKPGKAPKLLIYDASSLQSGVPSRFSGSGSGTDFTLTISSLQPEDFATYYCLQDYNYPLTFGGGTKVEIK",Kd,[1],1.74 nM
same,Kd,[8],0.293 nM
same,WT PsV IC50,[2],1.06 nM
"A-20.3 (antibody, V domains shown) VH: QVQLVQSGGGVVQPGRSLRLSCAASGFTFDNFAMHWVRQAPGKGLEWVAVILYDGINDYYADSVKGRFTISRGNSKNTLSLQMNSLRAEDTAVYYCARAQNYYDRHGTLQLDAFDIWGQGTLVTVSS VL: AIQMTQSPSSLSASVGDRVTITCRASDGIRNDLGWYQQKPGKAPKLLIYEASSLQSGVPSRFSGSGSGTDFTLTISSLQPEDFATYYCLQNYNYPLTFGGGTKVEIK",Kd,[1],3.52 nM
same,Kd,[8],0.366 nM
same,WT PsV IC50,[2],1.51 nM
